Legend:
Details in all cases: both partners purified
[1] = target: T1, calmodulin purified from bovine brain (bovine, UniProt P62157 1-149); assay: pull-down; 50 pmol GST-fusion protein with purified bovine brain CaM (50 pmol) in 250 µl of 100 mM Tris-HCl pH 7.5 with 0.1 mM CaCl2; 4°C; glutathione-sepharose 4B beads; immunoblot with anti-CaM; for the mutants density of CaM against loaded GST-fusion protein
T1 construct: calmodulin, bovine brain; also called CaM; pure bovine brain CaM; source: purified from bovine brain; bought: Calbiochem

[2] = target: T2, dansyl-calmodulin (bovine brain) (bovine, UniProt P62157 1-149, dansyl (0.18–0.34 mol of dansyl moiety per mol of CaM), site not stated); assay: other fluorescence titration; peptides (25–2000 nM) with 147 nM dansyl-CaM, 0.1 mM calcium, 1 hour at room temperature; emission at 485 nm; apparent dissociation constants
T2 construct: calmodulin, bovine brain, dansylated; also called dansyl-CaM; source: CaM purified from bovine brain (bought: Calbiochem), labelled with dansyl chloride

[3] = target: T2, dansyl-calmodulin (bovine brain); assay: dansyl-CaM fluorescence emission spectrum; 106 nM dansyl-CaM, 500 nM peptide, 0.1 mM calcium, 1 hour at room temperature; excitation 340 nm, emission 425–600 nm; compared with dansyl-CaM in 10 mM EGTA

Binder | binding result [1] | Kd [2] | other results
LNPLFYGFLGKKFKKYFLQLLKYIPPKA (domain or fragment, N-terminal part of the carboxyl tail of the AT1A receptor, amino acids 297–324; stop codon after 324A in GST-ATct(297–359); also called GST-N-terminus of carboxyl tail; source: E. coli BL21, purified (glutathione sepharose 4B); not shown: GST, N-terminal, kept) [GST-ATctN(297–324)] | binds |  | 
SYTLIWKALKKAYEIQKN (also called 1–12 motif peptide of the i3 loop; source: synthetic peptide (MUSC Proteogenomics Facility, HPLC purified)) [ATi3(214–231) peptide] |  | 0.177 µM | fold increase in dansyl-CaM fluorescence intensity at 486 nm (500 nM peptide) [3]: ~3.2 fold
YGFLGKKFKKYFLQLL (also called 1-5-10 motif peptide of the carboxyl tail; source: synthetic peptide (MUSC Proteogenomics Facility, HPLC purified)) [ATct(302–317) peptide] |  | 0.0794 µM | fold increase in dansyl-CaM fluorescence intensity at 482 nm (500 nM peptide) [3]: ~3.5 fold
YGFLGKKFKKYALQLL (AT1A receptor carboxyl tail, amino acids 302–317, with F313A; source: synthetic peptide (MUSC Proteogenomics Facility, HPLC purified)) [ATct(302–317)F313A peptide] |  | 0.388 µM | 
YGFLGKKAKKYFLQLL (AT1A receptor carboxyl tail, amino acids 302–317, with F309A; source: synthetic peptide (MUSC Proteogenomics Facility, HPLC purified)) [ATct(302–317)F309A peptide] |  | 0.308 µM | 
TSYTLIWKALKKAYEIQKNKPRNDDIFRII (domain or fragment, amplified from pcDNA3.1-AT1A receptor; cloned in pGEX-4T-1 at BamH I and EcoR I downstream of GST; also called GST-i3 loop; i3 loop of the AT1A receptor; source: E. coli BL21, purified (glutathione sepharose 4B); not shown: GST, N-terminal, kept) [GST-ATi3(213–242)] | binds |  | 
TSYTLIWKALKKAYEIQKNKPR (domain or fragment, also called GST-N-terminus of the i3 loop; source: E. coli BL21, purified (glutathione sepharose 4B); not shown: GST, N-terminal, kept) [GST-ATi3N(213–234)] | binds |  | 
